B1: BT1762 (SusD-like) with C-terminal 4xAla linker and 6xHis-tag, native from B. theta (natural protein, Bacteroides thetaiotaomicron, UniProt Q8A6W4 19-570, looked up)
chain: CDDFLDRQVPQGIVTGDQIASPEYVDNLVISAYAIWATGDDINSSFSLWNYDVRSDDCYKGGSGTEDGGVFNALEISKGINTTDWNINDIWKRLYQCITRANTALQSLDQMDEKTYPLKNQRIAEMRFLRGHAHFMLKQLFKKIVIVNDENMEPDAYNELSNTTYTNDEQWQKIADDFQFAYDNLPEVQIEKGRPAQAAAAAYLAKTYLYKAYRQDGADNALTGINEEDLKQVVKYTDPLIMAKGGYGLETDYSMNFLPQYENGAESVWAIQYSINDGTYNGNLNWGMGLTTPQILGCCDFHKPSQNLVNAFKTDSQGKPLFSTYDNENYEVATDNVDPRLFHTVGMPGFPYKYNEGYIIQKNDDWSRSKGLYGYYVSLKENVDPDCDCLKKGSYWASSLNHIVIRYADVLLMRAEALIQLNDGRITDAISLINEVRSRAAGSTMLIFNYKEDYGVNFKVTPYDLKAYAQDEAMKMLKWERRVEFGMESSRFFDLVRWGEAKDVINAYYVTEASRCSIYKNAGFTENKNEYLPVPFEQISASNGNYTQNFGW
B2: BT1763 (SusC-like), full-length, in freshly purified BT1762-1763 complex (natural protein, Bacteroides thetaiotaomicron, UniProt Q8A6W3 26-1041, looked up)
chain: GQNITVKGNVTSKTDGQPIIGASVVETTATTNGTITDFDGNFTLSVPVNSTLKITYIGYKPVTVKAAAIVNVLLEEDTQMVDEVVVTGYTTQRKADLTGAVSVVKVDEIQKQGENNPVKALQGRVPGMNITADGNPSGSATVRIRGIGTLNNNDPLYIIDGVPTKAGMHELNGNDIESIQVLKDAASASIYGSRAANGVIIITTKQGKKGQIKINFDASVSASMYQSKMNVLNTEQYGRAMWQAYVNDGENPNGNALGYAYNWGYNADGNPVLYGMTLSKYLDSKNTMPVADTDWFDEITRTGVIQQYNLSVSNGSEKGSSFFSLGYYKNLGVIKDTDFDRFSARMNSDYKLIDDILTIGQHFTLNRTSEVQAPGGIIETALDIPSAIPVYASDGSWGGPVGGWPDRRNPRAVLEYNKDNRYTYWRMFGDAYVNLTPFKGFNLRSTFGLDYANKQARYFTYPYQEGTQTNNGKSAVEAKQEHWTKWMWNAIATYQLEVGKHRGDVMIGMELNREDDSHFSGYKEDFSILTPDYMWPDAGSGTAQAYGAGEGYSLVSFFGKMNYSYADRYLLSLTLRRDGSSRFGKNHRYATFPSVSLGWRITQENFMKELTWLDDLKLRASWGQTGNQEISNLARYTIYAPNYGTTDSFGGQSYGTAYDITGSNGGGVLPSGFKRNQIGNDNIKWETTTQTNVGIDFSLFKQSLYGSLEYYYKKATDILTEMAGVGVLGEGGSRWINSGAMKNQGFEFNLGYRNKTAFGLTYDLNGNISTYRNEILELPETVAANGKFGGNGVKSVVGHTYGAQVGYIADGIFKSQDEVDNHATQEGAAVGRIRYRDIDHNGVIDERDQNWIYDPTPSFSYGLNIYLEYKNFDLTMFWQGVQGVDIISDVKKKSDFWSASNVGFLNKGTRLLNAWSPTNPNSDIPALTRSDTNNEQRVSTYFVENGSFLKLRNIQLGYTVPAVISKKMRMDRLRFYCSAQNLLTIKSKNFTGEDPENPNFSYPIPVNITFGLNIGF

The target in data set [1] is BT2264 (SusC-like TonB-dependent transporter) (Bacteroides thetaiotaomicron). The data set is described as follows: crystal structure.
For data set [2], the target named is B2. The data set is described as follows: SDS-PAGE of non-boiled samples.
The data set “native MS” concerns the molecule itself. As to the kind of experiment: native MS.

Consider “BT2264 (SusC-like TonB-dependent transporter) (natural protein)”, for which the stoichiometry N in data set [1] came out at 2. Consider B1, for which the binding result in data set [2] is given as “binds”. For B2, the “stoichiometry N” value in “native MS” stood at 2.

By stoichiometry N is commonly meant the number of molecules, sites or subunits per partner or assembly.

Source of the values: PMC5497811 (Nature, 2017).
